Results from FireProtDB.
“And” between values parts separate entries of the source, which are not always exact repeats. Equal values may be shown once.

B1: E188K|H125Y, Q88HV5 (parent)
chain: MPFQQGLLATPVPAHARHLFFTLQSPEALPAALDALLPQVDGKQLLLGVGAPLAKALGREIPGLRPFPLLDAAVENPSTQHALWLWLRGDERGDLLLRTQALEQALAPALSLADSVDGFLHRGGHDLTGYEDGTENPTDEEAVQAAIAADGSSFAAFQLWKHDLQYFKSLPQADQDNIIGRRLSDNEELDDAPASAHVKRTAQESFEPEAFMVRRSVSWADQRGAGLAFVALGKSFEAFEVQLRRMSGLEDGIIDGLYRFSRPLTGGYYWCPPMSETGVDLSPLLRA
B2: Cytochrome c-552, P15452 (parent)
chain: MKKFLLVAVVGLAGITFANEQLAKQKGCMACHDLKAKKVGPAYADVAKKYAGRKDAVDYLAGKIKKGGSGVWGSVPMPPQNVTDAEAKQLAQWILSIK
B3: Adenylate kinase, P16304 (parent)
chain: MNLVLMGLPGAGKGTQGERIVEDYGIPHISTGDMFRAAMKEETPLGLEAKSYIDKGELVPDEVTIGIVKERLGKDDCERGFLLDGFPRTVAQAEALEEILEEYGKPIDYVINIEVDKDVLMERLTGRRICSVCGTTYHLVFNPPKTPGICDKDGGELYQRADDNEETVSKRLEVNMKQTQPLLDFYSEKGYLANVNGQQDIQDVYADVKDLLGGLKK
B4: Tryptophan synthase alpha chain, P00929 (parent)
chain: MERYENLFAQLNDRREGAFVPFVTLGDPGIEQSLKIIDTLIDAGADALELGVPFSDPLADGPTIQNANLRAFAAGVTPAQCFEMLALIREKHPTIPIGLLMYANLVFNNGIDAFYARCEQVGVDSVLVADVPVEESAPFRQAALRHNIAPIFICPPNADDDLLRQVASYGRGYTYLLSRSGVTGAENRGALPLHHLIEKLKEYHAAPALQGFGISSPEQVSAAVRAGAAGAISGSAIVKIIEKNLASPKQMLAELRSFVSAMKAASRA
B5: T132I, Q2YD82 (parent)
chain: MDCAEGRAANLPCNHSTISGNEYVYWYRQIHSQGPQYIIHGLKNNETNEMASLIITEDRKSSTLILPHATLRDTAVYYCIVYDYGQNFVFGPGTRLSVLPYIQNPDPAVYQLRDSKSSDKSVCLFTDFDSQTNVSQSKDSDVYITDKTVLDMRSMDFKSNSAVAWSNKSDFACANAFNNSIIPEDTFFPSPESSCDVKLVEKSFETDTNLNFQNLSVIGFRILLLKVAGFNLLMTLRLWSS
B6: Amicyanin, P22364 (parent)
chain: MISATKIRSCLAACVLAAFGATGALADKATIPSESPFAAAEVADGAIVVDIAKMKYETPELHVKVGDTVTWINREAMPHNVHFVAGVLGEAALKGPMMKKEQAYSLTFTEAGTYDYHCTPHPFMRGKVVVE
B7: Thioredoxin, P80579 (parent)
chain: ATMTLTDANFQQAIQGDKPVLVDFWAAWCGPCRMMAPVLEEFAEAHADKVTVAKLNVDENPETTSQFGIMSIPTLILFKGGRPVKQLIGYQPKEQLEAQLADVLQ
B8: Elongation factor Ts, P43895 (parent)
chain: MSQMELIKKLREATGAGMMDVKRALEDAGWDEEKAVQLLRERGAMKAAKKADREAREGIIGHYIHHNQRVGVLVELNCETDFVARNELFQNLAKDLAMHIAMMNPRYVSAEEIPAEELEKERQIYIQAALNEGKPQQIAEKIAEGRLKKYLEEVVLLEQPFVKDDKVKVKELIQQAIAKIGENIVVRRFCRFELGA
B9: L-asparaginase 2, P00805 (parent)
chain: MEFFKKTALAALVMGFSGAALALPNITILATGGTIAGGGDSATKSNYTVGKVGVENLVNAVPQLKDIANVKGEQVVNIGSQDMNDNVWLTLAKKINTDCDKTDGFVITHGTDTMEETAYFLDLTVKCDKPVVMVGAMRPSTSMSADGPFNLYNAVVTAADKASANRGVLVVMNDTVLDGRDVTKTNTTDVATFKSVNYGPLGYIHNGKIDYQRTPARKHTSDTPFDVSKLNELPKVGIVYNYANASDLPAKALVDAGYDGIVSAGVGNGNLYKSVFDTLATAAKTGTAVVRSSRVPTGATTQDAEVDDAKYGFVASGTLNPQKARVLLQLALTQTKDPQQIQQIFNQY
B10: chitinase, Q54276 (parent)
chain: MSTRKAVIGYYFIPTNQINNYTETDTSVVPFPVSNITPAKAKQLTHINFSFLDINSNLECAWDPATNDAKARDVVNRLTALKAHNPSLRIMFSIGGWYYSNDLGVSHANYVNAVKTPASRAKFAQSCVRIMKDYGFDGVDIDWEYPQAAEVDGFIAALQEIRTLLNQQTITDGRQALPYQLTIAGAGGAFFLSRYYSKLAQIVAPLDYINLMTYDLAGPWEKVTNHQAALFGDAAGPTFYNALREANLGWSWEELTRAFPSPFSLTVDAAVQQHLMMEGVPSAKIVMGVPFYGRAFKGVSGGNGGQYSSHSTPGEDPYPSTDYWLVGCEECVRDKDPRIASYRQLEQMLQGNYGYQRLWNDKTKTPYLYHAQNGLFVTYDDAESFKYKAKYIKQQQLGGVMFWHLGQDNRNGDLLAALDRYFNAADYDDSQLDMGTGLRYTGVGPGNLPIMTAPAYVPGTTYAQGALVSYQGYVWQTKWGYITSAPGSDSAWLKVGRVA
B11: T-cell surface antigen CD2, P08921 (parent)
chain: MRCKFLGSFFLLFSLSSKGADCRDSGTVWGALGHGINLNIPNFQMTDDIDEVRWERGSTLVAEFKRKMKPFLKSGAFEILANGDLKIKNLTRDDSGTYNVTVYSTNGTRILNKALDLRILEMVSKPMIYWECSNATLTCEVLEGTDVELKLYQGKEHLRSLRQKTMSYQWTNLRAPFKCKAVNRVSQESEMEVVNCPEKGLPLYLIVGVSAGGLLLVFFGALFIFCICKRKKRNRRRKGEELEIKASRMSTVERGPKPHSTQASAPASQNPVASQAPPPPGHHLQTPGHRPLPPSHRNREHQPKKRPPPSGTQVHQQKGPPLPRPRVQPKPPCGSGDVSLPPPN

Variants of: B1
Settings: Pseudomonas putida (strain ATCC 47054 / DSM 6125 / CFBP 8728 / NCIMB 11950 / KT2440); pH 7.6; Fluorescence spectroscopy; whole UniProt chain shown

| Variant | Tm |
| --- | --- |
| E188K H125Y | 61 °C |
| E188K A142V H125Y | 59 °C |

Variants of: B2
Settings: Hydrogenobacter thermophilus (strain DSM 6534 / IAM 12695 / TK-6); pH 7; Thermal; CD; reversible: yes; structure 1YNR; whole UniProt chain shown

| Variant | change of melting temperature, mutant - wild type (higher = more stable) |
| --- | --- |
| A91V | -7.5 °C and -2.9 °C |

Variants of: B3
Settings: Bacillus subtilis (strain 168); pH 7.4; Thermal; DSC; Hepes 50 mM; reversible: No; structure 2EU8; whole UniProt chain shown

| Variant | change of melting temperature, mutant - wild type (higher = more stable) |
| --- | --- |
| D23K Y103M E114Q S169T Q180A S187D A193V V208L D210V K217Q | 5 °C |
| L3I G17A D23K K69R G73S D75S Y103M K105R E114Q D118E V119E S169T Q180A D184A S187D E188S G190E Y191V A193V Y205F D210V L211I K217Q | 11.6 °C |
| L3I G17A D23K K69R G73S D75S I99S Y103M K105R E114Q D118E V119E M121I E122A S169T Q180A D184A S187D E188S G190E Y191V A193V Y205F D210V L211I K217Q | 12.5 °C |

Variants of: B4
Settings: Salmonella typhimurium (strain LT2 / SGSC1412 / ATCC 700720); pH 7.8; Thermal; Enzyme activity; sodium N/N-bis(2-hydroxyethyl)glycine 0.05 M; structure 2WSY; whole UniProt chain shown

| Variant | Tm | change of melting temperature, mutant - wild type (higher = more stable) |
| --- | --- | --- |
| C118S | 41 °C | -5 °C |

Variants of: B5
Settings: Homo sapiens; Thermal; fluorescence; structure 6U07; whole UniProt chain shown

| Variant | Tm | change of melting temperature, mutant - wild type (higher = more stable) |
| --- | --- | --- |
| T132I | 55.7 °C | 0.8 °C |
| D151S | 53.3 °C | -1.6 °C |
| S121F | 58.5 °C | 5.2 °C |

Variants of: B6
Settings: Paracoccus denitrificans; pH 7.5; Thermal; absorbance; Potassium Phosphate Buffer 10 mM; structure 2OV0; whole UniProt chain shown

| Variant | Tm |
| --- | --- |
| W71Y | 53.9 °C |

Variants of: B7
Settings: Alicyclobacillus acidocaldarius subsp. acidocaldarius; pH 7; GdHCl; CD; Sodium phosphate 10 mM; reversible: yes; structure 1QUW; whole UniProt chain shown

| Variant | denaturant midpoint (higher = more stable) |
| --- | --- |
| K18G R82E | 2.4 M |
| R82E | 2.7 M |
| D102X | 2 M |

Same assay, conditions: Alicyclobacillus acidocaldarius subsp. acidocaldarius; pH 7; Thermal; CD; Sodium phosphate 10 mM; reversible: yes; structure 1QUW; whole UniProt chain shown

| Variant | Tm |
| --- | --- |
| K18G R82E | 73.1 °C |
| R82E | 81.5 °C and 81.4 °C |
| K18G | 78.1 °C and 78.8 °C |

Same assay, conditions: Alicyclobacillus acidocaldarius subsp. acidocaldarius; pH 7; Urea; CD; Sodium phosphate 10 mM; reversible: yes; structure 1QUW; whole UniProt chain shown

| Variant | denaturant midpoint (higher = more stable) |
| --- | --- |
| K18G R82E | 4.6 M |
| R82E | 5.5 M |
| D102X | 4 M |
| K18G | 5.2 M |

Variants of: B8
Settings: Thermus thermophilus (strain ATCC 27634 / DSM 579 / HB8); pH 7; Thermal; CD; Phosphate 10 mM; reversible: No; structure 1TFE; whole UniProt chain shown

| Variant | Tm | change of melting temperature, mutant - wild type (higher = more stable) |
| --- | --- | --- |
| C190A | 105 °C | -10 °C |

Variants of: B9
Settings: Escherichia coli (strain K12); pH 7.4; 25 °C; Urea; Fluorescence; Tris-HCl 50 mM; structure 3ECA; whole UniProt chain shown

| Variant | unfolding free energy |
| --- | --- |
| T34A | 48 kJ/mol |
| T34S | 47 kJ/mol |
| T141A | 48 kJ/mol |
| S144A | 52 kJ/mol |

Variants of: B10
Settings: Serratia marcescens; pH 8; Thermal; CD; sodium phosphate 20 mM; reversible: No; structure 1E6N; whole UniProt chain shown

| Variant | Tm | change of melting temperature, mutant - wild type (higher = more stable) |
| --- | --- | --- |
| G188A A234P | 64.1 °C | 4.2 °C |

Variants of: B11
Settings: Rattus norvegicus; pH 5; 25 °C; Urea; Fluorescence; Sodium acetate 50 mM; reversible: yes; structure 1HNG; whole UniProt chain shown

| Variant | ddG of mutation (higher = less stable) |
| --- | --- |
| Y98F | -6.23 kJ/mol |
